For this test, the target named is T1, GST-SMAD4^R361H, Q13485.
T1 chain: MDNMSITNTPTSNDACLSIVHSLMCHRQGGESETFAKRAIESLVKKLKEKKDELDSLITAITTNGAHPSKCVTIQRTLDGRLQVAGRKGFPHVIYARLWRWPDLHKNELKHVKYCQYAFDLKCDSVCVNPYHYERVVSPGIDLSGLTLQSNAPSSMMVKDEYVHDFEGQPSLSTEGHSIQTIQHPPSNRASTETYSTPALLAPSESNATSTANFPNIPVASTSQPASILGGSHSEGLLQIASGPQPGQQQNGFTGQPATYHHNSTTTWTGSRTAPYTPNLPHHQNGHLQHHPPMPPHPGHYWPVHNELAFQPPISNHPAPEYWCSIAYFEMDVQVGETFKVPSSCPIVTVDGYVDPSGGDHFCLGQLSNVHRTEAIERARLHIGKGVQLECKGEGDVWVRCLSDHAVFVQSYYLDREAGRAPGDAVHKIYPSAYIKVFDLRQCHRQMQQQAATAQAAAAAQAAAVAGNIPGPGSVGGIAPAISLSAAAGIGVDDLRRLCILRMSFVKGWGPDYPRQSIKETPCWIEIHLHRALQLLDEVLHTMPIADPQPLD
The experiment in a line: pull-down. Particulars: remark: other sources report otherwise.

B1: Venus-flag-SMAD3, P84022 1-425 (natural protein)
chain: MSSILPFTPPIVKRLLGWKKGEQNGQEEKWCEKAVKSLVKKLKKTGQLDELEKAITTQNVNTKCITIPRSLDGRLQVSHRKGLPHVIYCRLWRWPDLHSHHELRAMELCEFAFNMKKDEVCVNPYHYQRVETPVLPPVLVPRHTEIPAEFPPLDDYSHSIPENTNFPAGIEPQSNIPETPPPGYLSEDGETSDHQMNHSMDAGSPNLSPNPMSPAHNNLDLQPVTYCEPAFWCSISYYELNQRVGETFHASQPSMTVDGFTDPSNSERFCLGLLSNVNRNAAVELTRRHIGRGVRLYYIGGEVFAECLSDSAIFVQSPNCNQRYGWHPATVCKIPPGCNLKIFNNQEFAALLAQSVNQGFEAVYQLTRMCTIRMSFVKGWGAEYRRQTVTSTPCWIELHLNGPLQWLDKVLTQMGSPSIRCSSVS
In the case of B1, the EC50 of Go-6983 in enhancing the complex amounted to 8.9 µM and the EC50 of Ro-31-8220 in enhancing the complex is 2.1 µM.

The values above are taken from publication PMC10053325.
